Measured values: paper PMC3526665 (Protein and peptide letters, 2010)

Target: the molecule itself
Assay: SEC

B1: cytoplasmic domain of QseC (QseC-CD) (domain or fragment, E. coli)
chain: RERRFTSDAAHELRSPLTALKVQTEVAQLSDDDPQARKKALLQLHSGIDRATRLVDQLLTLSRLDSLDNLQDVAEIPLEDLLQSSVMDIYHTAQQAKIDVRLTLNAHSIKRTGQPLLLSLLVRNLLDNAVRYSPQGSVVDVTLNADNFIVRDNGPGVTPEALARIGERFYRPPGQTATGSGLGLSIVQRIAKLHGMNVEFGNAEQGGFEAKVSWLE
stoichiometry N: 2
